Molecular target: T1, angiotensin type 2 receptor (human (endogenous in RPTCs), UniProt P50052 1-363)
T1 sequence (looked up): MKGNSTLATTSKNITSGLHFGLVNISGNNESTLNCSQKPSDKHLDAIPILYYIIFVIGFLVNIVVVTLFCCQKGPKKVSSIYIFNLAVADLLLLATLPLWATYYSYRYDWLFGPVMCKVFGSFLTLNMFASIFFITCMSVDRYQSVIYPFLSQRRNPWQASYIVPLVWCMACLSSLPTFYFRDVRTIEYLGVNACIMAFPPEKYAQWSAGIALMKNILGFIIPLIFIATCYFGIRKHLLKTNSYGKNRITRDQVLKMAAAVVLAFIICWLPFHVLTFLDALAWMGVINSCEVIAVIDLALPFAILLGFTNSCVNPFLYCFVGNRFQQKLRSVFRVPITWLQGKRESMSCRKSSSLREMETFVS
Experiment: FRET or BRET

B1: dopamine D1 receptor (receptor, human (endogenous in nRPTCs), UniProt P21728 1-446, looked up)
chain: MRTLNTSAMDGTGLVVERDFSVRILTACFLSLLILSTLLGNTLVCAAVIRFRHLRSKVTNFFVISLAVSDLLVAVLVMPWKAVAEIAGFWPFGSFCNIWVAFDIMCSTASILNLCVISVDRYWAISSPFRYERKMTPKAAFILISVAWTLSVLISFIPVQLSWHKAKPTSPSDGNATSLAETIDNCDSSLSRTYAISSSVISFYIPVAIMIVTYTRIYRIAQKQIRRIAALERAAVHAKNCQTTTGNGKPVECSQPESSFKMSFKRETKVLKTLSVIMGVFVCCWLPFFILNCILPFCGSGETQPFCIDSNTFDVFVWFGWANSSLNPIIYAFNADFRKAFSTLLGCYRLCPATNNAIETVSINNNGAAMFSSHHEPRGSISKECNLVYLIPHAVGSSEDLKKEEAAGIARPLEKLSPALSVILDYDTDVSLEKIQPITQNGQHPT
fold increase of corrected FRET after FEN stimulation vs. control: 1.96 fold

— paper PMC3406928 (Hypertension, 2012)
